Consider two molecules from paper PMC5056995.

For data set [1], the target named is T1, insulin receptor extracellular domain (EC-IR) (UniProt P06213 28-956). Description: filter binding with RT-qPCR. On the technique in general: Quantitative PCR measures a nucleic acid by following its amplification.
For data set [2], the target named is T1, insulin receptor extracellular domain …. Nature of the data set: ELASA.

T1 sequence (P06213 28-956): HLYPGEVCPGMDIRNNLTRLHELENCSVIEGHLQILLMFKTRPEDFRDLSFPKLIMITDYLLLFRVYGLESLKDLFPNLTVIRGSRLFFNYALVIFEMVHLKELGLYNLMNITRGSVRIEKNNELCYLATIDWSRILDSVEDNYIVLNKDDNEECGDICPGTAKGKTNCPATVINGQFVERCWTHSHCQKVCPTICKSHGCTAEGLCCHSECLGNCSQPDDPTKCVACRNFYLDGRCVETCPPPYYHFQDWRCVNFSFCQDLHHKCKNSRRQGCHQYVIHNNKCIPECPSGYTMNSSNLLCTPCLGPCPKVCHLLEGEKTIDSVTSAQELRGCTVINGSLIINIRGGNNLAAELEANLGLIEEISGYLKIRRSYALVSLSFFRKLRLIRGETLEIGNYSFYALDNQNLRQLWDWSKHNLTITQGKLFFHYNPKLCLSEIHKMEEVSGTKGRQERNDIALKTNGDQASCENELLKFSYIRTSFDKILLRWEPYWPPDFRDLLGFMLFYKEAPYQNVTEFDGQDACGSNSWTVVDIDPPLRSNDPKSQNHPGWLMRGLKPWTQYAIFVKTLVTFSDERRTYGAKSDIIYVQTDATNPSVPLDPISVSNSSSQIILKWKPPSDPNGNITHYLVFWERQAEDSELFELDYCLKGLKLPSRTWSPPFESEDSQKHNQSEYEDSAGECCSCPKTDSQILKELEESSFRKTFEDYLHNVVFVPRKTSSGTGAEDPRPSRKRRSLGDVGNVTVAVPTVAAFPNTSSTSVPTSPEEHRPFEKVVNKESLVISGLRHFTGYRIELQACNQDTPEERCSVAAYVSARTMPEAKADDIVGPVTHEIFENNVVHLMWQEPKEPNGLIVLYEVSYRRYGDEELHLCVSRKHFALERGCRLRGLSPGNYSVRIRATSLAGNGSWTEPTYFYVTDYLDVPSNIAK

B1: GL56 (seq5/Gi-2) (XNA)
RNA: GGAGACAAGAAUAAACGCUCAAUGAUUUUGCAGCACUUCUUGUUAUCUUAACGAACUGUUGAUGAUUCGACAGGAGGCUCACAACAGGC
modifications: 2'-fluoro pyrimidines (all C and U), RNA purines
B1: in data set [1], the binding result is recorded as “binds”.

B2: GL56 5'-biotin (printed as GL56.T in ELASA methods) (XNA)
RNA: GGAGACAAGAAUAAACGCUCAAUGAUUUUGCAGCACUUCUUGUUAUCUUAACGAACUGUUGAUGAUUCGACAGGAGGCUCACAACAGGC
modifications: 2'-fluoro pyrimidines (all C and U), RNA purines
As to B2, the binding result in data set [2] is given as “binds”.
